This note sets out measurements from publication PMC3023227 (2010).

This test addresses GAPDH (Oryctolagus cuniculus, UniProt P46406). Description: fluorescence titration.

Where no end group is shown, it is not given here. [ ]: non-standard residue; d: D form. pY = N[C@@H](Cc1ccc(OP(=O)(O)O)cc1)C(=O)O

Chain of GAPDH (P46406 whole entry): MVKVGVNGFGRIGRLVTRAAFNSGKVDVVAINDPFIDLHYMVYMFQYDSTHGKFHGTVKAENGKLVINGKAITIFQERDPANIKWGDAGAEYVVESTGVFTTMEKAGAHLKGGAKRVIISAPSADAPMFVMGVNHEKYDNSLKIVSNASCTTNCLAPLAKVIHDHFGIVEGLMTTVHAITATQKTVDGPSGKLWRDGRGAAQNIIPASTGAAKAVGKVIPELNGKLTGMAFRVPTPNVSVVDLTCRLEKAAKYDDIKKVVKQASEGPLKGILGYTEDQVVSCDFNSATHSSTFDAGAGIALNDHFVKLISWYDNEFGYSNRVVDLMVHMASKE

The Kd is the equilibrium constant for the complex coming apart. A high value points to a looser complex. Molecule LIFRNVELQCLDADDAKATFDEEEGRDEYDEVAMPV [AE1 C-terminal domain (AE1C-WT) 876-911] gave a Kd of 2300 nM.

The molecule CLDADDAKATFDEEEGRDE[pY]DEVAMPV [AE1 C-terminal peptide AE1C-pY904] had a dissociation constant Kd of 2600 nM.

Turning to CLDADDAKATFDEEEGRDEYDEVAMPV [AE1 C-terminal peptide AE1C-Y904], binding was put at a Kd of 3200 nM.
